The term koff denotes a measure of how fast the partners let go of each other. As usually defined, the kon is a measure of how fast the partners come together.

B1: mAb17 (analog of camrelizumab) (antibody, V domains shown)
VH: EVQLVESGGGLVQPGGSLRLSCAASGFTFSSYMMSWVRQAPGKGLEWVATISGGGANTYYPDSVKGRFTISRDNAKNSLYLQMNSLRAEDTAVYYCARQLYYFDYWGQGTTVTVSS
VL: DIQMTQSPSSLSASVGDRVTITCLASQTIGTWLTWYQQKPGKAPKLLIYTATSLADGVPSRFSGSGSGTDFTLTISSLQPEDFATYYCQQVYSIPWTFGGGTKVEIK
notes: VH; IgG4 heavy-chain constant region with stabilizing 226CPPC hinge; VL; IgG4 analog; source: HEK293 suspension cells, cotransfected, purified (Protein A)
B2: mAb04 (analog of retifanlimab) (antibody, V domains shown)
VH: QVQLVQSGAEVKKPGASVKVSCKASGYSFTSYWMNWVRQAPGQGLEWIGVIHPSDSETWLDQKFKDRVTITVDKSTSTAYMELSSLRSEDTAVYYCAREHYGTSPFAYWGQGTLVTVSS
VL: EIVLTQSPATLSLSPGERATLSCRASESVDNYGMSFMNWFQQKPGQPPKLLIHAASNQGSGVPSRFSGSGSGTDFTLTISSLEPEDFAVYFCQQSKEVPYTFGGGTKVEIK
notes: as for B1
B3: mAb19 (analog of sasanlimab) (antibody, V domains shown)
VH: QVQLVQSGAEVKKPGASVKVSCKASGYTFTSYWINWVRQAPGQGLEWMGNIYPGSSLTNYNEKFKNRVTMTRDTSTSTVYMELSSLRSEDTAVYYCARLSTGTFAYWGQGTLVTVSS
VL: DIVMTQSPDSLAVSLGERATINCKSSQSLWDSGNQKNFLTWYQQKPGQPPKLLIYWTSYRESGVPDRFSGSGSGTDFTLTISSLQAEDVAVYYCQNDYFYPHTFGGGTKVEIK
notes: as for B1
B4: mAb21 (analog of sintilimab) (antibody, V domains shown)
VH: QVQLVQSGAEVKKPGSSVKVSCKASGGTFSSYAISWVRQAPGQGLEWMGLIIPMFDTAGYAQKFQGRVAITVDESTSTAYMELSSLRSEDTAVYYCARAEHSSTGTFDYWGQGTLVTVSS
VL: DIQMTQSPSSVSASVGDRVTITCRASQGISSWLAWYQQKPGKAPKLLISAASSLQSGVPSRFSGSGSGTDFTLTISSLQPEDFATYYCQQANHLPFTFGGGTKVEIK
notes: as for B1
B5: mAb16 (antibody, V domains shown)
VH: EVQLLESGGGLVQPGGSLRLSCAASGFTFSSYDMSWVRQAPGKGLEWVSTISGGGSYTYYQDSVKGRFTISRDNSKNTLYLQMNSLRAEDTAVYYCASPYYAMDYWGQGTTVTVSS
VL: DIQLTQSPSFLSAYVGDRVTITCKASQDVGTAVAWYQQKPGKAPKLLIYWASTLHTGVPSRFSGSGSGTEFTLTISSLQPEDFATYYCQHYSSYPWTFGQGTKLEIK
notes: IgG4; also called analog of dostarlimab; dostar; source: HEK293 suspension cells, cotransfected, purified (Protein A)
B6: mAb17 (antibody, V domains shown)
VH: B1 VH
VL: B1 VL
notes: IgG4; also called analog of camrelizumab; camre; source: HEK293 suspension cells, cotransfected, purified (Protein A)
B7: mAb23 (antibody, V domains shown)
VH: EVQLLESGGVLVQPGGSLRLSCAASGFTFSNFGMTWVRQAPGKGLEWVSGISGGGRDTYFADSVKGRFTISRDNSKNTLYLQMNSLKGEDTAVYYCVKWGNIYFDYWGQGTLVTVSS
VL: DIQMTQSPSSLSASVGDSITITCRASLSINTFLNWYQQKPGKAPNLLIYAASSLHGGVPSRFSGSGSGTDFTLTIRTLQPEDFATYYCQQSSNTPFTFGPGTVVDFR
notes: IgG4; also called analog of cemiplimab; cemip; source: HEK293 suspension cells, cotransfected, purified (Protein A)
B8: mAb03 (antibody, V domains shown)
VH: QVQLQESGPGLVKPSETLSLTCTVSGFSLTSYGVHWIRQPPGKGLEWIGVIYADGSTNYNPSLKSRVTISKDTSKNQVSLKLSSVTAADTAVYYCARAYGNYWYIDVWGQGTTVTVSS
VL: DIVMTQSPDSLAVSLGERATINCKSSESVSNDVAWYQQKPGQPPKLLINYAFHRFTGVPDRFSGSGYGTDFTLTISSLQAEDVAVYYCHQAYSSPYTFGQGTKLEIK
notes: IgG4; also called analog of tislelizumab; tisle; source: HEK293 suspension cells, cotransfected, purified (Protein A)

T3 sequence (Q15116 25-168): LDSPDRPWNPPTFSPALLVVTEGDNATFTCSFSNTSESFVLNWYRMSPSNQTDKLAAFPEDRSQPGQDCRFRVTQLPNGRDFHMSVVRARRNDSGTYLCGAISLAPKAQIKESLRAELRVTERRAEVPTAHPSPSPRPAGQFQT
T2 sequence (Q15116 whole entry, looked up, tested part not stated): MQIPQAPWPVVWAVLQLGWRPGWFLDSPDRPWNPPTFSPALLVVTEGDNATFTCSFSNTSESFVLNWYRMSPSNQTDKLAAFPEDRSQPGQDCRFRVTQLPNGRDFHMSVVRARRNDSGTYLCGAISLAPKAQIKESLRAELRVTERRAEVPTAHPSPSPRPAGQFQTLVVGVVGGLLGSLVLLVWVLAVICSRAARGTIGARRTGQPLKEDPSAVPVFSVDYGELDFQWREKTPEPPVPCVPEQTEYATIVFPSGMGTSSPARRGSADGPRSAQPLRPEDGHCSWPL

The target in the first experiment is T1, Recombinant purified human PD-1 protein, residues Leu25-Thr168, with a C-terminal 6-His tag (human, UniProt Q15116).
T1 construct: programmed cell death protein 1 (PD-1), human, residues Leu25-Thr168; monomer; the results call it wild-type or full length PD-1 against the P35-Q167 fragment; also called PD-1-His; PD-1 His-tagged monomer; source: bought: R&D Systems; not shown: His6, C-terminal, kept
T1 sequence (Q15116 25-168): as the sequence (Q15116 25-168) above
The experiment in a line: SPR; Biacore 8K, flat chips (average of C1 and CMD-P); mAbs captured on goat anti-human IgG Fc; PD-1 His-tagged monomer analyte 0.4-100 nM; 25 C; HBS-EP+ pH 7.4; 1:1 Langmuir fit with mass transport; apparent. The settings on record: both partners purified.
In the case of B1, the Kd amounted to 2400 pM.
For the molecule B2, the Kd came out at 350 pM.
Take B3: the Kd is below 130 pM.
Turning to B4, the Kd is below 120 pM.

The target in the next experiment is T1, Recombinant purified human PD-1 …. The experiment in a line: SPR; Biacore 8K, 3D-hydrogel chips (average of CM5 and CMD-200M); mAbs captured on goat anti-human IgG Fc; PD-1 His-tagged monomer analyte 0.4-100 nM; 25 C; HBS-EP+ pH 7.4; 1:1 Langmuir fit with mass transport; apparent. To be noted: both partners purified. On the technique in general: Surface plasmon resonance follows binding to a sensor surface in real time, without labels.
In the case of B1, the Kd is 4500 pM.
On to B2, for which the Kd was 650 pM.
The same measure, in the same setting: under B3 stands below 300 pM.
On the same count and under the same terms, the figure for B4 is below 210 pM.

Another experiment concerns the target T2, biotinylated His-tagged PD-1 (Homo sapiens, UniProt Q15116, biotin).
T2 construct: PD-1, His-tagged, biotinylated, used in the MSD experiments; probably the R&D Systems Leu25-Thr168 protein after biotinylation
Put plainly: MSD solution equilibrium titration; 100 pM biotinylated His-tagged PD-1 titrated with mAb (top 100, 50 or 10 nM binding sites), 18 h at room temperature; free antigen captured on mAb-coated MSD plates; relative KD. The settings on record: both partners purified.
Take B1: the Kd amounted to 470 pM.
The molecule B2 came in with a Kd of 56 pM.
The same measure, in the same setting: under B3 stands 20 pM.
Same read-out and setting: under B4 stands 28 pM.

Another experiment has as its target T3, Recombinant purified human PD-1 protein, residues Leu25-Thr168, with a C-terminal 6-His tag (Homo sapiens, UniProt Q15116).
T3 construct: programmed cell death protein 1 (PD-1), human, residues Leu25-Thr168; also called programmed cell death protein 1; PD-1-His monomer; source: bought: R&D Systems (catalog# 8986-PD, lot# DDJM0417041)
Put plainly: SPR; Biacore 8K, CMD-P chip (flat); mAb captured on amine-coupled goat anti-human IgG Fc, PD-1-His monomer as analyte (100 nM top, 3-fold dilutions), 1200 s dissociation; 25 C, HBS-EP+ pH 7.4; 1:1 Langmuir fit, apparent constants. The settings on record: both partners purified.
Take B5: the Kd came to 965 pM, the koff was found to be 0.000269 s⁻¹ and the kon worked out at 279000 M⁻¹ s⁻¹.
As to B6, the Kd came to 2580 pM, the koff stood at 0.000497 s⁻¹ and the kon turned out to be 192000 M⁻¹ s⁻¹.
Take B7: the Kd turned out to be 897 pM, the koff came to 0.000164 s⁻¹ and the kon turned out to be 183000 M⁻¹ s⁻¹.
In the same order, the values of B8 are 134 pM, 5.77e-05 s⁻¹ and 432000 M⁻¹ s⁻¹.

The next experiment deals with T3, Recombinant purified human PD-1 …. The experiment in a line: SPR; Biacore 8K, CM5 chip (3D-hydrogel); mAb captured on amine-coupled goat anti-human IgG Fc, PD-1-His monomer as analyte (100 nM top, 3-fold dilutions), 1200 s dissociation; 25 C, HBS-EP+ pH 7.4; 1:1 Langmuir fit, apparent constants. To be noted: both partners purified.
On to B5, for which the Kd was 1770 pM, the koff came to 0.000262 s⁻¹ and the kon is 148000 M⁻¹ s⁻¹.
On to B6, for which the Kd was 4990 pM, the koff was 0.000456 s⁻¹ and the kon was determined as 91400 M⁻¹ s⁻¹.
As for B7, the Kd was 1750 pM, the koff is 0.000157 s⁻¹ and the kon is 90100 M⁻¹ s⁻¹.
For B8, the Kd turned out to be 277 pM, the koff came out at 6.03e-05 s⁻¹ and the kon turned out to be 218000 M⁻¹ s⁻¹.

The target of a further experiment is T1, Recombinant purified human PD-1 …. Put plainly: SPR; Carterra LSA, CMD-P (flat) chip; mAbs captured on goat anti-human IgG Fc in a 384-spot array; PD-1-His analyte 0.5-1000 nM, 5 min association, 20 min dissociation; HBS-ET + 0.5 mg/ml BSA; 1:1 Langmuir fit; mean of spots; apparent. To be noted: both partners purified.
In the case of B1, the Kd is 4000 pM, the koff was 0.00073 s⁻¹ and the kon amounted to 180000 M⁻¹ s⁻¹.
For B2 the same measures were 700 pM, 0.00039 s⁻¹ and 580000 M⁻¹ s⁻¹.
In the same order, the values of B3 are below 170 pM, below 4.3e-05 s⁻¹ and 250000 M⁻¹ s⁻¹.
For B4 the same measures were below 130 pM, below 4.3e-05 s⁻¹ and 330000 M⁻¹ s⁻¹.

Another experiment has as its target T3, Recombinant purified human PD-1 …. The experiment in a line: SPR; Biacore 8K, CMD-200M chip (3D-hydrogel); mAb captured on amine-coupled goat anti-human IgG Fc, PD-1-His monomer as analyte (100 nM top, 3-fold dilutions), 1200 s dissociation; 25 C, HBS-EP+ pH 7.4; 1:1 Langmuir fit, apparent constants. To be noted: both partners purified.
For the molecule B5, the Kd was found to be 1630 pM, the koff is 0.000287 s⁻¹ and the kon is 176000 M⁻¹ s⁻¹.
For B6 the same measures were 4090 pM, 0.000503 s⁻¹ and 123000 M⁻¹ s⁻¹.
Consider B7, for which the Kd stood at 2010 pM, the koff is 0.000212 s⁻¹ and the kon amounted to 105000 M⁻¹ s⁻¹.
Consider B8, for which the Kd was 240 pM, the koff was 6.16e-05 s⁻¹ and the kon is 257000 M⁻¹ s⁻¹.

The next experiment shares this target. Put plainly: SPR; Biacore 8K, C1 chip (flat); mAb captured on amine-coupled goat anti-human IgG Fc, PD-1-His monomer as analyte (100 nM top, 3-fold dilutions), 1200 s dissociation; 25 C, HBS-EP+ pH 7.4; 1:1 Langmuir fit, apparent constants; 8 mAbs measured in two independent experiments. To be noted: both partners purified.
As to B8, the Kd worked out at 128 pM, the koff amounted to 8.72e-05 s⁻¹ and the kon was 682000 M⁻¹ s⁻¹.

For another experiment the target is unchanged. The experiment is described as above. To be noted: both partners purified. The source holds these as a separate data set.
On to B5, for which the Kd came out at 784 pM, the koff is 0.000297 s⁻¹ and the kon is 379000 M⁻¹ s⁻¹.
In the same order, the values of B6 are 2150 pM, 0.000526 s⁻¹ and 245000 M⁻¹ s⁻¹.
For B7, the Kd turned out to be 752 pM, the koff worked out at 0.000188 s⁻¹ and the kon was determined as 250000 M⁻¹ s⁻¹.
For B8 the same measures were 119 pM, 7.54e-05 s⁻¹ and 636000 M⁻¹ s⁻¹.

(Values after publication PMC7058304 (PLoS ONE, 2020).)
